Reference: patent US20140056966A1, “CONJUGATE ANGIOSTATION OR ITS FRAGMENT, THE METHOD OF PRODUCING THE CONJUGATE AND USE THEREOF” (PROTGEN LTD., priority 2007, published 2014)
Like-named read-outs stand apart in the source and are kept apart here.

B1: K1: fragment of recombinant human plasminogen; angiostatin K1, SEQ ID NO:3 (protein, listed as Homo sapiens)
chain: CKTGNGKNYRGTMSKTKNGITCQKWSSTSPHRPRFSPATHPSEGLEENYCRNPDNDPQGPWCYTTDPEKRYDYCDILEC
B2: K1-3: angiostatin fragment K1-3 (fragment of plasminogen), recombinant, sequence of SEQ ID NO.2, expressed in E. coli (protein, listed as Homo sapiens)
chain: MVYLSECKTGNGKNYRGTMSKTKNGITCQKWSSTSPHRPRFSPATHPSEGLEENYCRNPDNDPQGPWCYTTDPEKRYDYCDILECEEECMHCSGENYDGKISKTMSGLECQAWDSQSPHAHGYIPSKFPNKNLKKNYCRNPDRELRPWCFTTDPNKRWELCDIPRCTTPPPSSGPTYQCLKGTGENYRGNVAVTVSGHTCQHWSAQTPHTHNRTPENFPCKNLDENYCRNPDGKRAPWCHTTNSQVRWEYCKIPSCDSSP
B3: PEG-K1-3: K1-3 having the sequence of SEQ ID NO:2 modified with 20 kDa PEG at the N-terminal α-amino group (conjugate, listed as Homo sapiens)
chain: B2 chain
modifications: 20 kDa PEG at N-terminus
B4: K3: fragment of recombinant human plasminogen; angiostatin K3, SEQ ID NO:5 (protein, listed as Homo sapiens)
chain: CLKGTGENYRGNVAVTVSGHTCQHWSAQTPHTHNRTPENFPCKNLDENYCRNPDGKRAPWCHTTNSQVRWEYCKIPSC
B5: K2: fragment of recombinant human plasminogen; angiostatin K2, SEQ ID NO:4 (protein, listed as Homo sapiens)
chain: CMHCSGENYDGKISKTMSGLECQAWDSQSPHAHGYIPSKFPNKNLKKNYCRNPDRELRPWCFTTDPNKRWELCDIPRC

Legend:
[1] = body weight of animals in the NCI-H226 xenograft model; settings: 20 mg/kg; Day 11 and Day 25; ANOVA p<0.05
Protocol: (§1) Female Balb/c nu/nu mice aged 6-8 weeks of about 18-20 g weight (institute of laboratory animal sciences, CAMS) were used in this experiment. Mice were subcutaneously inoculated on the right side with NCI-H226 cells (human pancreatic cancer cell line, derived from ATCC, ATCC number CRL-5826). When the tumor volume reached about 80-125 mm^3, the animals were divide into 3 groups randomly (6 per group). […] The body weight and tumor volume of the animals were measured twice a week. Sacrifice the animals on day 28, collect the tumors and take photographs.

[2] = system: NCI-H226 NSCLC xenograft; experiment: NCI-H226 NSCLC xenograft model, tumor burden; assay type: in vivo, Balb/c nu/nu mice; settings: for T/C ratio: PEG-K1-3 4.5 mg/kg i.v., Taxol 20 mg/kg i.v.; for tumor inhibition rate: tumor burden 21 days after treatment, vs control group, PEG-K1-3 4.5 mg/kg, Taxol 20 mg/kg
Protocol: as §1

[3] = system: bovine capillary endothelial cell (BCE); settings: cited from earlier work; for inhibition of BCE proliferation: fragments of recombinant human plasminogen
[4] = system: H22 hepatocellular carcinoma; experiment: early-stage H22 hepatocellular carcinoma mice tumor model; assay type: in vivo, Balb/c mice; settings: subcutaneous, 3 weeks, tumor weight day 22
Protocol: K1-3 used in this example is K1-3 having the sequence of SEQ ID NO.2. Experiments were performed to observe the in vive inhibitory activity of K1-3 with PEG coupled to its N-terminus on early-stage H22 tumor. Balb/c mice of about 20 g were used in the experiment (Beijing Vital River Laboratory Animal Co. Ltd.). Mice were inoculated at back with H22 cells, 1×10^6 cells per mouse. The mice were then randomly grouped after the tumor volume reaches 1 cm^3, 8 mice per group, including the negative control group (sodium acetate), the positive control group (K1-3, 4.5 mg/kg body weight, administered daily), three treatment groups (K1-3 with PEG coupled to its N-terminus, 1.5 mg/kg body weight, administered daily, or 4.5 mg/kg body weight, administered daily, twice per week, or weekly, respectively). The administration was performed by subcutaneous injection and lasted for 3 weeks. The mice were sacrificed on day 22, the weight of tumor was measured, and the efficacy was evaluated by tumor inhibition rate. […] Since the in vivo half life of K1-3 with PEG coupled to its N-terminus are longer than that of unmodified K1-3 of the same dosage, the biological activity K1-3 with PEG coupled to its N-terminus is higher than that of the unmodified K1-3 of the same concentration when administration intervals are extended.

[5] = system: human umbilical vein endothelial cell (HUVEC); assay type: cell-based; settings: 16 hours
Protocol: The K1-3 used in this example has the sequence of SEQ ID NO.2. 2×10^5/ml HUVEC were inoculated in 12-well plates (Corning) and cultured in the M199 medium (Hyclone) containing 20% fetal bovine serum (Hyclone) to exponential phase. After starved for 12 hours, crossed wounds were created in each well. Suspending cells were washed away. Experimental groups were as follows: negative control (PBS), positive control (K1-3 at the concentration of 0.04, 0.4 and 4 μg/ml) and treatment group (K1-3 with PEG at the concentration of 0.04, 0.4 and 4 μg/ml). After culturing for 16 hours at 37° C., the amounts of migrated cells were detected. At the concentration of 0.04-4 μg/ml, the inhibitory effect of cell migration was improved with the increase of protein concentration.

[6] = system: HeLa (human cervical cancer); experiment: proliferation of tumor cells (HeLa), MTT; assay type: cell-based; settings: 48 hours; for concentration showing the highest anti-proliferation effect on tumor cells: among 0.4, 4, 40 and 150 μg/ml
Protocol: K1-3 used in this example is the K1-3 having the sequence of SEQ ID NO.2. Specifically, HeLa (ATCC#CCL-2, USA) were added into 96-well plates at 20,000 cells per well, then cultured in the DMEM medium (Hyclone) containing 10% serum to exponential phase. After starving for 12 hours, cells were treated with different concentrations of modified or unmodified K1-3 for measurement of cell proliferation. Experimental groups were as follows: negative control group (PBS), positive control groups (0.4, 4, 40, and 150 μg/ml K1-3), and treatment group (0.4, 4, 40, and 150 μg/ml K1-3 with PEG coupled to its N-terminus). After culturing for 48 hours at 37° C., the cells in the plates were treated with MTT for 4 h at 37° C. Then DMSO was added, and the absorption was measured at 570 nm by microplate spectrophotometer.

[7] = system: B16 melanoma; experiment: late-stage B16 melanoma mice tumor model; assay type: in vivo, C57B/L mice; settings: subcutaneous, tumor weight day 11
Protocol: K1-3 used in this example is K1-3 having the sequence of SEQ ID NO.2. Experiments were performed to observe the in vivo inhibitory activity of K1-3 with PEG coupled to its N-terminus on late-stage B16 tumor. C57B/L mice of about 20 g were used in the experiment (Beijing Vital River Laboratory Animal Co. Ltd.). Mice were inoculated at back with B16 cells (ATCC#CRL-6475, USA), 1×10^6 cells per mouse. The mice were then randomly grouped after the tumor volume reaches 1 cm^3, 8 mice per group, including the negative control group (sodium acetate), the positive control group (K1-3, 4.5 mg/kg body weight, administered daily), three treatment groups (K1-3 with PEG coupled to its N-terminus, 1.5 mg/kg body weight, administered daily, or 4.5 mg/kg body weight, administered daily, every 3 days, every 6 days, or every 9 days, respectively). Administration was performed by subcutaneous injection and lasted for 10 days. The mice were sacrificed on day 11, the weight of tumor was measured, and the efficacy was evaluated by tumor inhibition rate.

[8] = system: human umbilical vein endothelial cell (HUVEC); experiment: trans-well migration of HUVEC; assay type: cell-based; settings: 8 hours
Protocol: The K1-3 used in this example has the sequence of SEQ ID NO.2. HUVECs (Protgen, Beijing) were cultured in the M199 medium (Hyclone) containing 20% fetal bovine serum (Hyclone) to exponential phase. After starved for 12 hours, cells were added into trans-well inserts (Millipore, USA) at the concentration of 10,000 cells per well for measurement of cell migration. Mediums for migration assay included M199 medium with 5% serum. For the treatment groups, K1-3 with or without modification were added to the cells at 0.004, 0.04, 0.4 and 4 μg/ml. After culturing for 8 hours at 37° C., the cells in the trans-well inserts were fixed with 1% glutaraldehyde (Beijing chemical plant, China). […] The migrated cell number was counted under microscope (Olympus). Cells in three different fields in one plate treatment were counted and then the inhibition rate was calculated. At the concentration of 0.04-4 μg/ml, the inhibitory effect of cell migration improves with the increase of protein concentration.

[9] = in vivo half-life of K1-3 with or without PEG modification in Wistar rat
Protocol: The K1-3 used in this example has the sequence of SEQ ID NO.2. The efficacy of tK1-3 with PEG coupled to its N-terminus was evaluated by measuring the in vivo half-life of K1-3 with or without PEG modification in Wistar rat (Vitalriver Experimental Animal Center), respectively. Two healthy Wistar rat (about 200 g) were injected intraveniously with K1-3 and K1-3 modified with PEG, respectively, at a dose of 4.5 mg/kg body weight. Blood samples were taken from eye sockets of the rats at 0, 5, 10, 30 minutes, 1, 2, 4, 8, 16, 24, 36, 48, 72, 96, 120 and 144 hours. Plasma was then collected and the concentration of K1-3 with or without PEG modification was measured by sandwich ELISA, respectively.

[10] = 4.5 mg/kg body weight daily, 10 days
[11] = Wistar rat, injected intravenously, 4.5 mg/kg body weight, plasma, sandwich ELISA

Molecule | T/C ratio ([2]; Day 4) [%] | T/C ratio ([2]; Day 11) [%] | T/C ratio ([2]; Day 18) [%] | T/C ratio ([2]; Day 25) [%] | tumor inhibition rate [2] [%] | inhibition of BCE proliferation [3] | tumor inhibition rate ([4]; 4.5 mg/kg body weight daily) [%] | inhibition rate on cells migration (wound healing) ([5]; 0.04 μg/ml) [%] | inhibition rate on cells migration (wound healing) ([5]; 0.4 μg/ml) [%] | inhibition rate on cells migration (wound healing) ([5]; 4 μg/ml) [%] | concentration showing the highest anti-proliferation effect on tumor cells [6] [µg/mL] | tumor inhibition rate [7, 10] [%] | inhibition rate on cells migration ([8]; 0.04 μg/ml) [%] | inhibition rate on cells migration ([8]; 0.4 μg/ml) [%] | inhibition rate on cells migration ([8]; 4 μg/ml) [%] | half-life [9, 11] [h] | other results
CC(=O)O[C@H]1C(=O)[C@@]2(C)[C@H]([C@H](OC(=O)c3ccccc3)[C@]3(O)C[C@H](OC(=O)[C@H](O)[C@@H](NC(=O)c4ccccc4)c4ccccc4)C(C)=C1C3(C)C)[C@]1(OC(C)=O)CO[C@@H]1C[C@@H]2O [Taxol, reference compound] | 69 | 39 | 28 | 18 | 84.43 | – | – | – | – | – | – | – | – | – | – | – | average body weight compared with the control group [1]: significantly lower; tumor burden compared with the control group ([2]; 20 mg/kg i.v., Day 11, Day 15, Day 18): significantly difference
B1 | – | – | – | – | – | effectively inhibit | – | – | – | – | – | – | – | – | – | – | –
B2 | – | – | – | – | – | effectively inhibit | 51 | 0 | 20 | 25 | 40 | 45 | 43 | 68 | 76 | 12.2 | inhibitory effect on cell proliferation compared with angiostatin K1-4 [3]: significantly stronger
B3 | 73 | 63 | 62 | 66 | 17.18 | – | 60 | 35 | 40 | 105 | 40 | 60 | 58 | 65 | 69 | 81.5 | tumor inhibition rate ([4]; 1.5 mg/kg body weight daily): 54%; tumor inhibition rate ([4]; 4.5 mg/kg body weight weekly): 50%; inhibition of the tumor cell proliferation compared with unmodified K1-3 ([6]; 0.4-150 μg/ml): more potent than unmodified K1-3; tumor inhibition rate ([7]; 1.5 mg/kg body weight daily, 10 days): 28%; tumor inhibition rate ([7]; 4.5 mg/kg body weight every 3 days): 34%; tumor inhibition rate ([7]; 4.5 mg/kg body weight every 6 days): 25%; tumor inhibition rate ([7]; 4.5 mg/kg body weight every 9 days): 24%; tumor burden compared with the control group ([2]; 4.5 mg/kg i.v., p<0.05): significantly decreased; half-life ([9]; summary statement, refers to example 4): 81.5 h
B4 | – | – | – | – | – | effectively inhibit | – | – | – | – | – | – | – | – | – | – | –
B5 | – | – | – | – | – | effectively inhibit | – | – | – | – | – | – | – | – | – | – | –
